Molecular target: HIV-1 BaL envelope protein spike (Env) on virions (HIV-1 BaL strain)
Experiment: cell-based or functional assay

MVN-DAVEI8 (microvirin-linker-MPER fusion)
EC50 of virolysis (% p24 release): 780 nM
